Test results published in the supplement of paper PMC7125110.
± gives the standard error. For some assays here: Fewer inactive variants are shown than the library holds.

B1: glmS ribozyme (parent)
chain: AUAAAAGCGCCAGAACUACAGAAAUGUAGUUGACGAGGAGGAGGUUUAUCGAAUUUUCGGCGGAUGCCUCCAAA

What was measured:
Settings in all cases: with glucosamine-6-phosphate
glucosamine-6-phosphate [1] = variants of: B1; test: kcat; higher = faster cleavage; RNA array
In short: (§1)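 Tracking of barcoded ribozyme variants used a hybridised Cy3 probe at 37 °C, after in situ transcription by E. coli RNA polymerase on sequenced MiSeq chips. The flowed solution held 40 μM to 10 mM glucosamine-6-phosphate in HEPES/KCl/Mg(OAc)2 buffer, and imaging ran over ~14 h. kobs was taken from exponential decay fits of normalised per-tile medians, and kcat and KM from weighted Michaelis–Menten fits.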

glucosamine-6-phosphate [2] = variants of: B1; test: self-cleavage kobs at 40 uM GlcN6P; higher = faster cleavage; RNA array
In short: as §1

glucosamine-6-phosphate [3] = variants of: B1; test: self-cleavage kobs at 640 uM GlcN6P; higher = faster cleavage; RNA array
In short: as §1

glucosamine-6-phosphate [4] = variants of: B1; test: self-cleavage kobs at 2500 uM GlcN6P; higher = faster cleavage; RNA array
In short: as §1

glucosamine-6-phosphate [5] = variants of: B1; test: self-cleavage kobs at 10000 uM GlcN6P; higher = faster cleavage; RNA array
In short: as §1

glucosamine-6-phosphate [6] = variants of: B1; test: KM; higher = weaker cofactor use; RNA array
In short: as §1

glucosamine-6-phosphate [7] = variants of: B1; test: self-cleavage kobs at 160 uM GlcN6P; higher = faster cleavage; RNA array
In short: as §1

Variant	kcat (glucosamine-6-phosphate [1]) [s⁻¹]	self-cleavage kobs at 40 uM GlcN6P (glucosamine-6-phosphate [2]) [s⁻¹]	self-cleavage kobs at 640 uM GlcN6P (glucosamine-6-phosphate [3]) [s⁻¹]	self-cleavage kobs at 2500 uM GlcN6P (glucosamine-6-phosphate [4]) [s⁻¹]	self-cleavage kobs at 10000 uM GlcN6P (glucosamine-6-phosphate [5]) [s⁻¹]	KM (glucosamine-6-phosphate [6]) [mM]	self-cleavage kobs at 160 uM GlcN6P (glucosamine-6-phosphate [7]) [s⁻¹]
AUAAAAGCGCCAUAACUACAGAAAUGUAGUUGACGAGGAGGAGGUUUAUCGAAUUCUCGGCGGAUGCCUCCAAA	0.000107 ± 3.8e-05	< 1e-05	9.36e-05 ± 1.9e-05	7.63e-05 ± 1.5e-05	0.000214 ± 4.4e-05	–	–
AUAAAAGCGCCAGCACUACAGAAAUGUAGUUGACGAGGAGGAGGUUUAUCGAAUUUUCGGCGGAUGCCUCCAAA	0.0129 ± 0.0023	0.000163 ± 2.7e-06	0.00185 ± 6.7e-05	0.00541 ± 0.00017	0.00971 ± 0.00024	3.46 ± 0.74	0.000466 ± 1.5e-05
AUAAAAGCGCCAGCACUACAGAAAUGUAGUUGACGAGGAGGAGGUUUAUCGAAUUUUGGGCGGAUGCCUCCAAA	0.000165 ± 6.6e-05	–	3.92e-05 ± 1e-05	4.23e-05 ± 8.3e-06	0.000108 ± 1.2e-05	–	–
AUAAAAGCGCCAGCACUACAGAAAUGUAGUUGUCGAGGAGGAGGUUUAUUGAAUUUUCGGCGGAUGCCUACAAA	3.25e-05 ± 1.4e-05	–	4.2e-05 ± 1.9e-05	–	–	–	–
AUAAAAGCGCCAUAACUACAGAAAUGUAGUUGACGAGGAGGAGGUUUAUCGAAUUUUCGGCGGAGGGCUCCAAA	7.46e-05 ± 2.9e-06	–	–	6.05e-05 ± 2.3e-05	6.81e-05 ± 1.5e-05	0.808 ± 0.17	–
AUAAAAGCGCCAGCACUACAGAAAUGUAGUUGACGCGGAGGAGGUUUAUCGAAUUUUCGGCGGAUGCCUCCAAA	< 1e-05	< 1e-05	–	–	–	–	< 1e-05
AUAAAAGCGCCAUAACUACAGAAAUGUAGUUGACGAGGAGGAGGUUUAUCGAAUCUUCGGCGGAUGCCUCCAAA	0.000878 ± 0.00013	–	0.000149 ± 3.4e-05	0.000304 ± 5.4e-05	0.000642 ± 7e-05	3.97 ± 1.2	2.79e-05 ± 1.3e-05
AUAAAAGCGCCAUAACUACAGAAAUGUAGUUGACGAGGAGGAGGUUUAUCGAAUAUUCGGCGGAUGCCUCCAAA	0.00182 ± 0.00037	3.28e-05 ± 7.2e-06	0.000214 ± 4e-05	0.000853 ± 0.00015	0.00135 ± 0.00013	3.54 ± 1.2	8.82e-05 ± 1.7e-05
